Positions count from the first letter of the chain named. Values belong to the binder of their own block, whether it stands above or below them.
Legend:
[1] = biological target: T1, murine IL-11 (mouse, UniProt P47873 22-199); assay: SPR (Biacore), 37 C, antibody captured via anti-Fc, IL-11 as analyte
T1 construct: Invigate recombinant protein; biotinylated when immobilized in the Di-complex ELISA; also called mIL11; mIL-11
T1 sequence: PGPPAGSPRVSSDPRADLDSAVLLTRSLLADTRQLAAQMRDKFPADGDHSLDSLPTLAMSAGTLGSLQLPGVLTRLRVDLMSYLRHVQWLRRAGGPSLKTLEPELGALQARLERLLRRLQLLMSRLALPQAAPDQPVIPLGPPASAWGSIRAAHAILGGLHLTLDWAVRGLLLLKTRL
Experimental: To assess the binding kinetics and affinity of anti-IL-11 bispecific antibodies as well as their species cross-reactivity profile, binding assays were conducted using surface plasmon resonance (SPR). […] Antibodies were captured either via anti-human Fc IgGs (“Human antibody capture kit”, Order No. BR100839, Cytiva) or via anti-mouse Fc IgGs (“Mouse antibody capture kit, Order No. BR100383, Cytiva) covalently amine coupled to a Series S CM5 sensor chip (Cytiva) depending on the isotype. The amine coupling was carried out according to the manufacturer's instructions using 1-ethyl-3-(3-dimethylaminopropyl) carbodiimide hydrochloride (EDC), N-hydroxysuccinimide (NHS) and ethanolamine HCl, pH 8.5 (“Amine Coupling Kit” BR-1000-50, Cytiva.). Human, mouse, cynomolgus or rat IL-11 was used as analyte at several dilutions within the concentration range from 0.05-200 nM. For binding assays with only one concentration 200 nM IL-11 was used. The sensor surface was regenerated with glycine pH 1.7 after each antigen injection. Obtained sensorgrams were double referenced (subtraction of reference flow cell signal and buffer injection) and were fitted to a 1:1 Langmuir binding model to derive kinetic data using the Biacore T200 Evaluation software or the Biacore Insight software.
If no value is reported, there was either no binding or very low binding and multiphasic binding behavior.

[2] = biological target: T2, human IL-11 (human, UniProt P20809 22-199); assay: cell-based or functional assay
T2 sequence: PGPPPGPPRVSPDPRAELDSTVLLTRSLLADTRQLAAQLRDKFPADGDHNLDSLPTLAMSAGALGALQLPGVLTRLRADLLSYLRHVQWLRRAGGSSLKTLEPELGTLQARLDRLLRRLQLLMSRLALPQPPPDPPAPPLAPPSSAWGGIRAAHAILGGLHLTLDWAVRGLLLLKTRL

[3] = biological target: T1, murine IL-11; assay: cell-based or functional assay
[4] = biological target: T3, cynomolgus IL-11 (cynomolgus, UniProt P20808 22-199); assay: cell-based or functional assay
T3 sequence: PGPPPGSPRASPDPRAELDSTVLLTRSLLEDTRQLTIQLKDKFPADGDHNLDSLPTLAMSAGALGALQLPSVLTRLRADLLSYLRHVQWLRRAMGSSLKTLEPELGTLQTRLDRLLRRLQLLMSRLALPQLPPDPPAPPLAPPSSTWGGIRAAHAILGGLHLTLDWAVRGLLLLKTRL

[5] = biological target: T4, rat IL-11 (rat, UniProt Q99MF5 22-199); assay: cell-based or functional assay
T4 sequence: T1 sequence with S50N, L84F, G94A, V137A, I138V

Kd [1]: < 1 pM | Efficacy (%), Stat3 reporter gene assay [2]: 99.1% | IC50, Stat3 reporter gene assay [2]: 2 nM | Efficacy (%), Stat3 reporter gene assay [3]: 99.6% | IC50, Stat3 reporter gene assay [3]: 1.4 nM | Efficacy (%), Stat3 reporter gene assay [4]: 100% | IC50, Stat3 reporter gene assay [4]: 0.75 nM | Efficacy (%), Stat3 reporter gene assay [5]: 97.6% | IC50, Stat3 reporter gene assay [5]: ~1.2 nM
B1: TPP-29697 (bispecific antibody, IgG1)
chain 1: QVQLVESGGGVVQPGRSLRLSCAASGFTFSHYDMHWVRQAPGKGLEWVAVISYHGSVKFYADSVKGRFTISRDNSKNTLYLQMNSLRAEDTAVYYCARTPGFHFDYWGQGTLVTVSSGGGGSGGGGSGGGGSQSVLTQPPSASGTPGQRVTISCSGSSSNIGSNYVSWYQQLPGTAPKLLIYYDDLRPSGVPDRFSGSKSGTSASLAISGLRSEDEADYYCSAWDDSLSGVVFGGGTKLTVLGGGGSGGGGSGGGGSGVECPPCPAPPVAGPSVFLFPPKPKDTLMISRTPEVTCVVVGVSHEDPEVKFNWYVDGVEVHNAKTKPREEQYNSTYRVVSVLTVLHQDWLNGKEYKCKVSNKQLPSPIEKTISKAKGQPREPQVYTLPPCRDELTKNQVSLWCLVKGFYPSDIAVEWESNGQPENNYKTTPPVLDSDGSFFLYSKLTVDKSRWQQGNVFSCSVMHEALHNHYTQKSLSLSPGK
chain 2: EVQLLESGGGLVQPGGSLRLSCAASGFTFSSYGMHWVRQAPGKGLEWVAVISYDGSYKYYADSVKGRFTISRDNSKNTLYLQMNSLRAEDTAVYYCAAGVPDYWGQGTLVTVSSGGGGSGGGGSGGGGSQSVLTQPPSASGTPGQRVTISCSGSSSNIGSDYDVHWYQQLPGTAPKLLIYSNEERPSGVPDRFSGSKSGTSASLAISGLRSEDEADYYCSAWDSSLSGPVFGGGTKLTVLGGGGSGGGGSGGGGSGVECPPCPAPPVAGPSVFLFPPKPKDTLMISRTPEVTCVVVGVSHEDPEVKFNWYVDGVEVHNAKTKPREEQYNSTYRVVSVLTVLHQDWLNGKEYKCKVSNKQLPSPIEKTISKAKGQPREPQVCTLPPSRDELTKNQVSLSCAVKGFYPSDIAVEWESNGQPENNYKTTPPVLDSDGSFFLVSKLTVDKSRWQQGNVFSCSVMHEALHNHYTQKSLSLSPGK
notes: scFv-kih-hIgG1 with Fc-silencing mutations; bispecific comprising CDRs of TPP-29528 and TPP-29519

Kd [1]: 1.7 pM | Efficacy (%), Stat3 reporter gene assay [2]: 101% | IC50, Stat3 reporter gene assay [2]: 4.1 nM | Efficacy (%), Stat3 reporter gene assay [3]: 102% | IC50, Stat3 reporter gene assay [3]: 2 nM | Efficacy (%), Stat3 reporter gene assay [4]: 101% | IC50, Stat3 reporter gene assay [4]: 1.7 nM | Efficacy (%), Stat3 reporter gene assay [5]: 99.9% | IC50, Stat3 reporter gene assay [5]: 2 nM
B2: TPP-29603 (bispecific antibody, IgG1)
chain 1: QVQLVESGGGVVQPGRSLRLSCAASGFTFSHYDMHWVRQAPGKGLEWVAVISYHGSVKFYADSVKGRFTISRDNSKNTLYLQMNSLRAEDTAVYYCARTPGFHFDYWGQGTLVTVSSGGGGSGGGGSGGGGSQSVLTQPPSASGTPGQRVTISCSGSSSNIGSNYVSWYQQLPGTAPKLLIYYDDLRPSGVPDRFSGSKSGTSASLAISGLRSEDEADYYCSAWDDSLSGVVFGGGTKLTVLGGGGSGGGGSGGGGSGVECPPCPAPPVAGPSVFIFPPKPKDVLTITLTPKVTCVVVDISKDDPEVQFSWFVDDVEVHTAQTQPREEQFNSTFRSVSELPIMHQDWLNGKEFKCRVNSAAFPAPIEKTISKTKGRPKAPQVYTIPPCKEQMAKDKVSLWCMITDFFPEDITVEWQWNGQPAENYKNTQPIMDTDGSYFVYSKLNVQKSNWEAGNTFTCSVLHEGLHNHHTEKSLSHSPGK
chain 2: EVQLLESGGGLVQPGGSLRLSCAASGFTFSSYGMHWVRQAPGKGLEWVAVISYDGSYKYYADSVKGRFTISRDNSKNTLYLQMNSLRAEDTAVYYCAAGVPDYWGQGTLVTVSSGGGGSGGGGSGGGGSQSVLTQPPSASGTPGQRVTISCSGSSSNIGSDYDVHWYQQLPGTAPKLLIYSNEERPSGVPDRFSGSKSGTSASLAISGLRSEDEADYYCSAWDSSLSGPVFGGGTKLTVLGGGGSGGGGSGGGGSGVECPPCPAPPVAGPSVFIFPPKPKDVLTITLTPKVTCVVVDISKDDPEVQFSWFVDDVEVHTAQTQPREEQFNSTFRSVSELPIMHQDWLNGKEFKCRVNSAAFPAPIEKTISKTKGRPKAPQVCTIPPPKEQMAKDKVSLSCAITDFFPEDITVEWQWNGQPAENYKNTQPIMDTDGSYFVVSKLNVQKSNWEAGNTFTCSVLHEGLHNHHTEKSLSHSPGK
notes: scFv-kih-mIgG1; bispecific comprising CDRs of TPP-29528 and TPP-29519

Reference: US20240317847A1 (Bayer, published 2024)
